Results as given in patent US20230052646A1 (JJP BIOLOGICS SP Z O O, published 2023).

T1: membrane-bound full-length human HVEM on stable HVEM-transfected HEK293F cells (clone no. 128) (human, UniProt Q92956 39-283)
T1 construct: The same cDNA was also expressed on Sf9 insect cells; also called TNFRSF14; CD270
T1 sequence: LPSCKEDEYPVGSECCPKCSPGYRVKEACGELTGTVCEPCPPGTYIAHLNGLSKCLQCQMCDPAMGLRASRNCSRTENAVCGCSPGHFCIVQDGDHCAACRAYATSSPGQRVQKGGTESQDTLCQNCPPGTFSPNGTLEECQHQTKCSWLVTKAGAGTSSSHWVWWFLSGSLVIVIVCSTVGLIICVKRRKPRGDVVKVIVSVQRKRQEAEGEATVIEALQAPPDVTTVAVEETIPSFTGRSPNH


Columns and labels:
[1] = target: membrane-bound full-length human HVEM on stable HVEM-transfected HEK293F cells (clone no. 128) (human) (UniProt Q92956); test: flow cytometry, 1:20, HEK293F clone no. 128
[2] = target: membrane-bound human HVEM on Promega bioassay cells (NFκB-RE-luc human HVEM HEK293 reporter cells; CHO-K1 Activator cells) (human) (UniProt Q92956); test: flow cytometry, 1:20, NFκB-RE-luc HVEM reporter cells
[3] = target: membrane-bound human HVEM on Promega bioassay cells (NFκB-RE-luc human HVEM HEK293 reporter cells; CHO-K1 Activator cells) (human) (UniProt Q92956); test: cell-based or functional assay
[4] = target: T1, membrane-bound full-length human HVEM …; test: FACS titration on HVEM-HEK293F, half-maximum binding
Protocol: In order to determine the relative binding affinity of purified BTLA/HVEM blocking chimeric mouse/human anti-human HVEM antibodies no. 36H12, 45H6, 48H6, 11H7, and 49G4 for human HVEM, FACS analysis was used.
To this end, stable human full-length HVEM-transfected HEK293F cells (clone no. 128; see Example 1(a) above) were put at 10×10⁶ cells/mL in ice-chilled PBS containing 0.1% BSA (Sigma)/0.05% NaN₃ (PBS/BSA/NaN₃) supplemented with 50 μg/mL human IgGs (blocking possible Fcγ receptors; Sigma) for 10 minutes at 4° C. Then, 10 μL/tube (i.e., 0.1×10⁶ cells) of these cells were incubated with or without 100 μL titrated (in PBS/BSA/NaN₃) purified BTLA/HVEM blocking chimeric mouse/human anti-human HVEM antibody/tube for 30 minutes at 4° C. After extensive washing in PBS/BSA/NaN₃, cells were subsequently incubated with 1:200 diluted PE-conjugated goat anti-human IgG Fcγ-specific antibodies (Jackson ImmunoResearch) for 30 minutes at 4° C. After extensive washing in PBS/BSA/NaN₃, cells were fixed in 4% formaldehyde in PBS/BSA/NaN₃ for 30 minutes at 4° C. Binding (geo-mean fluorescence intensity) of chimeric mouse/human anti-human HVEM antibodies no. 36H12, 45H6, 48H6, 11H7, and 49G4 on membrane human HVEM was measured using a flow cytometer (FACSCalibur; BD Biosciences). For comparison, purified BTLA/HVEM blocking mouse anti-human HVEM antibody counterparts no. 36H12, 45H6, 48H6, 11H7, and 49G4 were run in parallel, and their binding was monitored as described in Example 2 (a).

[5] = target: T1, membrane-bound full-length human HVEM …; test: FACS, Ab 10 µg/mL then biotinylated TNFβ on HVEM-HEK293F
Protocol: (§1) Generation of human ‘full-length’ HVEM-transfected HEK293F cells (clone no. 128) is described in Example 1a. Binding of soluble human BTLA, of soluble human CD160, of soluble human LIGHT, and of soluble human TNFβ on surface human HVEM-transfected cells was analysed by FACS analysis. To this end, stable human full-length HVEM-transfected HEK293F cells were put at 10×10⁶ cells/mL in ice-chilled phosphate-buffered saline containing 0.1% BSA (Sigma)/0.05% NaN₃ (PBS/BSA/NaN₃) supplemented with 50 μg/mL human IgGs (blocking possible Fcγ receptors; Sigma) for 10 minutes at 4° C. Then, 10 μL/tube (i.e., 0.1×10⁶ cells) of these cells were incubated with or without 100 μL purified chimeric mouse/human anti-HVEM antibody at 10 μg/mL/tube or a human IgG4/κ (Sigma) negative isotype control at 10 μg/mL/tube for 30 minutes at 4° C. After this (i.e., without washing), cells were subsequently incubated with 1 μg/mL soluble biotinylated human BTLA (Sino Biological Inc), with 10 μg/mL soluble his-tagged human CD160 (Sino Biological Inc), with 1 μg/mL soluble his-tagged human LIGHT (Sino Biological Inc), or with 0.1 μg/mL soluble biotinylated human TNFβ (Sino Biological Inc) in PBS/BSA/NaN₃ for 30 minutes at 4° C. After extensive washing in PBS/BSA/NaN₃, cells were incubated with 1:200 diluted PE-conjugated streptavidin (detection BTLA and TNFβ; Jackson ImmunoResearch) or with biotinylated mouse anti-his antibody (detection CD160 and LIGHT; R&D Systems) at 10 μg/mL for 30 minutes at 4° C. After extensive washing in PBS/BSA/NaN₃, cells were incubated with 1:200 diluted PE-conjugated streptavidin (detection CD160 and LIGHT; Jackson ImmunoResearch) for 30 minutes at 4° C. After extensive washing in PBS/BSA/NaN₃, cells were fixed in 4% formaldehyde in PBS/BSA/NaN₃ for 30 minutes at 4° C. Binding of ligands BTLA, CD160, LIGHT and TNFβ on membrane human HVEM was measured using a flow cytometer (model FACSCalibur; BD Biosciences). For comparison, purified BTLA/HVEM blocking mouse anti-human HVEM antibody counterparts no. 36H12, 45H6, 48H6, 11H7, and 49G4 at 10 μg/mL/tube and a mouse IgG1 (BD Biosciences) negative isotype control at 10 μg/mL/tube were run in parallel.

[6] = target: T1, membrane-bound full-length human HVEM …; test: FACS, Ab 10 µg/mL then biotinylated BTLA on HVEM-HEK293F
Protocol: as §1

[7] = target: T1, membrane-bound full-length human HVEM …; test: FACS, biotinylated TNFβ pre-bound, then Ab 20 µg/mL
Protocol: (§2) Generation of human ‘full-length’ HVEM-transfected HEK293F cells (clone no. 128) is described in Example 1a. Displacement of pre-bound soluble human BTLA, soluble human CD160, soluble human LIGHT, and soluble human TNFβ from surface human HVEM-transfected cells was analysed by FACS analysis. To this end, stable human full-length HVEM-transfected HEK293F cells were put at 10×10⁶ cells/mL in ice-chilled phosphate-buffered saline containing 0.1% BSA (Sigma)/0.05% NaN₃ (PBS/BSA/NaN₃) supplemented with 50 μg/mL human IgGs (blocking possible Fcγ receptors; Sigma) for 10 minutes at 4° C. Then, 10 μL/tube (i.e., 0.1×10⁶ cells) of these cells were incubated without or with 50 μL soluble biotinylated human BTLA-human Fcγ fusion protein (Sino Biological Inc) at 2 μg/mL/tube, with soluble his-tagged human CD160 (Sino Biological Inc) at 20 μg/mL/tube, with soluble his-tagged human LIGHT (Sino Biological Inc) at 2 μg/mL/tube, or with soluble biotinylated human TNFβ (Sino Biological Inc) at 0.2 μg/mL/tube in PBS/BSA/NaN₃ for 30 minutes at 4° C. After this (i.e., without washing), cells were subsequently incubated with 50 μL purified chimeric mouse/human anti-HVEM antibody at 20 μg/mL/tube or a human IgG4/κ (Sigma) negative isotype control at 20 μg/mL/tube for 30 minutes at 4° C. After extensive washing in PBS/BSA/NaN₃, cells were incubated with 1:200 diluted PE-conjugated streptavidin (detection BTLA and TNFβ; Jackson ImmunoResearch) or with biotinylated mouse anti-his antibody (detection CD160 and LIGHT; R&D Systems) at 10 μg/mL for 30 minutes at 4° C. After extensive washing in PBS/BSA/NaN₃, cells were incubated with 1:200 diluted PE-conjugated streptavidin (detection BTLA and TNFβ; Jackson ImmunoResearch) or with biotinylated mouse anti-his antibody (detection CD160 and LIGHT; R&D Systems) at 10 μg/mL for 30 minutes at 4° C. After extensive washing in PBS/BSA/NaN₃, cells were incubated with 1:200 diluted PE-conjugated streptavidin (detection CD160 and LIGHT; Jackson ImmunoResearch) for 30 minutes at 4° C. After extensive washing in PBS/BSA/NaN₃, cells were fixed in 4% formaldehyde in PBS/BSA/NaN₃ for 30 minutes at 4° C. Residual binding of ligands BTLA, CD160, LIGHT and TNFβ on membrane human HVEM was measured using a flow cytometer (model FACSCalibur; BD Biosciences).

[8] = target: T1, membrane-bound full-length human HVEM …; test: FACS, his-LIGHT pre-bound, then Ab 20 µg/mL
Protocol: as §2, with “After extensive washing in PBS/BSA/NaN₃, cells were incubated with 1:200 diluted PE-conjugated streptavidin (detection BTLA and TNFβ; Jackson ImmunoResearch) or with biotinylated mouse anti-his antibody (detection CD160 and LIGHT; R&D Systems) at 10 μg/mL for 30 minutes at 4° C. After extensive washing in PBS/BSA/NaN₃, cells were incubated with 1:200 diluted PE-conjugated streptavidin (detection CD160 and LIGHT; Jackson ImmunoResearch) for 30 minutes at 4° C. After extensive washing in PBS/BSA/NaN₃, cells were fixed in 4% formaldehyde in PBS/BSA/NaN₃ for 30 minutes at 4° C.” left out

[9] = target: T1, membrane-bound full-length human HVEM …; test: FACS, biotinylated BTLA-Fc pre-bound, then Ab 20 µg/mL
Protocol: as §2

Molecule	signal to noise ratio [1]	signal to noise ratio [2]	EC80 of LIGHT-induced NFκB-RE-luc activation [3] [µg/mL]	EC50 [4] [µg/mL]	% blocking of ligand binding [5] [%]	% blocking of ligand binding [6] [%]	% displacement of pre-bound ligand [7] [%]	% displacement of pre-bound ligand [8] [%]	% displacement of pre-bound ligand [9] [%]
chimeric mouse/human IgG4/kappa anti-human HVEM antibody no. 45H6 (antibody, V domains shown, 24/25 within the entry; Stabilized human IgG4 (S239P) already in the entry; also called chimeric 45H6) VH: DVQLVESGGGLVQPGGSRKLSCAASGFTFSSFGMHWVRQAPEKGLEWVAYISSGNSNIYYVDTVKGRFTISRDNPKNTLFLQMTSLRSEDTAMYYCARKRAYGDYSGFSMDYWGQGTSVTVSS VL: DIVMTQSQKFMSTSVGDRVSVTCKASQNVDTNVAWYQQKPGQSPKALIYSASYRYSGVPDRFTGSGSGTDFTLTISNVQSEDLAEYFCQQYNKFPLTFGGGTKLEIKR				0.306	> 94	> 95	> 90	< 20	> 95
chimeric mouse/human IgG4/kappa anti-human HVEM antibody no. 49G4 (antibody, V domains shown, 48/49 within the entry; Stabilized human IgG4 (S239P) already in the entry; also called chimeric 49G4) VH: EVQLQQSGAELVKPGASVKLSCRASGFNIKDTYMHWVKQRPEQGLEWIGRIDPARGNTKYDPKFQGKATITADTSSNTAYLQLSSLTSEDTAVYYCASAMDYWGQGTSVTVSS VL: DVLMTQTPLSLPVSLGDQASISCRSSQSIVHSNGNTYLEWFLQKPGQSPKLLIYKVSNRFSGVPDRFSGSGSGTDFTLKISRVEAEDLGVYYCFQGSHVPLTFGAGTKLELKR				0.312	> 80	> 95	> 55	< 20	> 95
chimeric mouse/human IgG4/kappa anti-human HVEM antibody no. 36H12 (antibody, V domains shown, 16/17 within the entry; Stabilized human IgG4 (S239P) already in the entry; also called chimeric 36H12) VH: EVQLQQSGAGLVKPGASVKLSCTASGFNIKDTYMHWVRQRPEQGLEWIGRIDPATANTKYDPKFQGKATLTTDTSSNTAYLQLSSLTSEDTAVYYCVTYGYDVSWFAYWGLGALVTVSA VL: DVLMTQTPLSLPVSLGDQASISCRSSQSIVHSNGITYLEWYLQKPGQSPKLLIYKVSNRFSGVPDRFSGSGSGTDFTLKISRVEAEDLGVYYCFQGSHVPLTFGAGTKLELKR				0.433	> 94	> 95	> 90	< 20	> 95

More lines, now with the values ahead:

signal to noise ratio [1]	signal to noise ratio [2]	EC80 of LIGHT-induced NFκB-RE-luc activation [3] [µg/mL]	EC50 [4] [µg/mL]	% blocking of ligand binding [5] [%]	% blocking of ligand binding [6] [%]	% displacement of pre-bound ligand [7] [%]	% displacement of pre-bound ligand [8] [%]	% displacement of pre-bound ligand [9] [%]	Molecule
1000	< 5								phycoerythrin (PE)-conjugated mouse anti-human HVEM antibody (clone eBioHVEM-122; eBioscience)
		0.3							soluble his-tagged human LIGHT (R&D Systems) (ligand)
